Laboratory results: PMC3079799 (Nature chemical biology, 2011)

What was measured:
[1] = molecular target: T1, parathyroid hormone receptor type 1 with GFP inserted in its N-terminus (^GFPPTHR) (UniProt Q03431 27-593); assay: FRAP
T1 sequence: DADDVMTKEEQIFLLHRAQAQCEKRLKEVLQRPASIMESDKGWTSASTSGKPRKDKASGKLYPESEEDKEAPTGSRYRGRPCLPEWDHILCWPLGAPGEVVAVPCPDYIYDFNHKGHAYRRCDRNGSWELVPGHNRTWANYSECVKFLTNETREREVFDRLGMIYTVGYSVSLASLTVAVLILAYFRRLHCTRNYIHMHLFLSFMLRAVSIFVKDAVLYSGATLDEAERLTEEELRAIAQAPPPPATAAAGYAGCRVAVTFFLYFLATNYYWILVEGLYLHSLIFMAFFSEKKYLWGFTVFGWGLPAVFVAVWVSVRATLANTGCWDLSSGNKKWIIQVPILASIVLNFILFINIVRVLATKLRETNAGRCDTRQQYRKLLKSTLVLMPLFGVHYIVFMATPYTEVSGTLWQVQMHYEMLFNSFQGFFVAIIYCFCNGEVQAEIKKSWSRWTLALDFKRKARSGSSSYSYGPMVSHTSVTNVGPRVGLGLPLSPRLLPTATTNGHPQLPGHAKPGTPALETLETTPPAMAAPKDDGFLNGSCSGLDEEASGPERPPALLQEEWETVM

[2] = molecular target: T1, parathyroid hormone receptor type 1 …; assay: FRAP; remark: listed apart in the source

B1: β-arrestin1 fused to tdTomato (β-arr1^tom) (natural protein)
chain: MGDKGTRVFKKASPNGKLTVYLGKRDFVDHIDLVDPVDGVVLVDPEYLKERRVYVTLTCAFRYGREDLDVLGLTFRKDLFVANVQSFPPAPEDKKPLTRLQERLIKKLGEHAYPFTFEIPPNLPCSVTLQPGPEDTGKACGVDYEVKAFCAENLEEKIHKRNSVRLVIRKVQYAPERPGPQPTAETTRQFLMSDKPLHLEASLDKEIYYHGEPISVNVHVTNNTNKTVKKIKISVRQYADICLFNTAQYKCPVAMEEADDTVAPSSTFCKVYTLTPFLANNREKRGLALDGKLKHEDTNLASSTLLREGANREILGIIVSYKVKVKLVVSRGGLLGDLASSDVAVELPFTLMHPKPKEEPPHREVPENETPVDTNLIELDTNDDDIVFEDFARQRLKGMKDDKEEEEDGTGSPQLNNR
B1 was tested, and the “half-life (t1/2) of fluorescence recovery (FRAP), after PTH(1-34)” value [1] was 30 ± 2.5 s and the “half-life (t1/2) of fluorescence recovery (FRAP), after M-PTH(1-28)” value [2] was 69 ± 4.5 s.
